Columns and labels:
[1] = biological target: T1, human Axl (rhAxl-Fc chimera) (Homo sapiens, UniProt P30530); test: Biacore kinetic analysis (surface plasmon resonance) on immobilised rhAxl-Fc; assay type: binding; conditions: rhAxl immobilized on Biacore sensor chip, 25° C., 1:1 Langmuir binding model
T1 construct: Soluble recombinant antigens corresponding to the extracellular domains of members of the human TAM receptor family; Fc; purchased R&D Systems 154-AL
Experimental: Kinetic analysis of murine MAb 10G5 interacting with rhAxl immobilized on the surface of the Biacore sensor chip. Overlay plots of sensograms for different antibody concentrations (0.3-166.7 nM for murine 10G5) are shown. The precise kinetic analysis was performed using BIA evaluation software and curve fitting according to 1:1 Langmuir binding model. […]
Affinity determination of anti-Axl antibody 10G5 was performed at 25° C. by surface plasmon resonance measurements using Biacore 3000 instrument (GE Healthcare). As a solid antigen-coated surface, a sensor chip CM5 with immobilized rhAxl-Fc chimera (R&D Systems, Cat. no. 154-AL) at density 190 RU was used.
For the kinetics measurements, different concentrations of anti-Axl antibodies (from 0.3 to 666.7 nM) in HBS-EP buffer (Biacore, Cat. no. BR-1001-88) were injected at flow rate of 30 μL/min with 3 min injection time followed by 5 min dissociation (buffer alone). After each cycle, the surface was regenerated by 30 sec injection of a regeneration solution (10 mM HCl, 1 M NaCl) at flow rate 50 μL/min.
The kinetic association (on-rate, kon) and dissociation (off-rate, koff) rates were calculated using BIAevaluation software and 1:1 Langmuir binding model. The equilibrium dissociation constant (KD) was calculated as the koff/kon ratio. The half-life (t1/2) of the formed antibody-antigen complexes was calculated as the ln 2/koff ratio. […]

[2] = test system: Axl-positive cells (MDA-MB-231); test: Flow cytometry binding to Axl-positive cells; parameters: species or system human
Experimental: Different concentrations of chimeric antibody was tested in flow cytometry for binding to triple-negative breast cancer cell line MDA-MB-231. The bound chimeric antibody was detected with APC-conjugated donkey F(ab′)2 fragments specific for either mouse IgG (H+L), 1:500 dilution, or human IgG (H+L), 1:300 dilution, respectively (both from Jackson ImmunoResearch). The cell staining was measured using Accuri C6 flow cytometer (BD Biosciences). MFI, geometric mean fluorescence intensity.
For flow cytometry, the adherent cells in culture were washed with PBS, detached by trypsin (0.25%) treatment for 1 min and hitting culture dish for full detachment. Trypsin was quenched by adding into the tissue flask the complete medium followed by washing the cells with PBS. […]
The purified chimeric antibodies (>95% purity) were analysed for binding to Axl-positive breast cancer cell line MDA-MB-231 in flow cytometry. […] The cell-bound antibodies were detected with APC-conjugated donkey anti-human or anti-mouse, respectively, IgG (H+L) F(ab′)2 fragments (Jackson ImmunoResearch). […]
For flow cytometry, the adherent cells in culture were washed with PBS, detached by treatment with trypsin (0.25%) for 1 min. […] The cell-bound antibodies were detected with APC-conjugated donkey anti-human IgG (H+L) F(ab′)2 fragments (Jackson ImmunoResearch Laboratories #709-136-149, 1:400 dilution). […]

Off-rate (koff) [1] [s⁻¹] | On-rate (kon) [1] [M⁻¹ s⁻¹] | Molecule | Binding to Axl+ cells in flow cytometry (clone selection) ([2]; Example 1) | Binding to Axl-positive MDA-MB-231 cells in flow cytometry ([2]; titration of antibody, APC-conjugated secondary)
0.000439 | 829000 | murine 10G5: mouse monoclonal anti-human Axl antibody from hybridoma WR-10G5-E5; VH SEQ ID NO: 28, VL SEQ ID NO: 29 (antibody, listed as Mus musculus, V domains shown, (1)..(118) Mus musculus 10G5 VH domain; (1)..(112) Mus musculus 10G5 VL domain) VH: QVQLQQSGAELVRPGASVKLSCKASGYSFTDFYINWVRQRPGQGLEWIARIFPGGDNTYYNEKFKGKATLTAEESSSTAYIQLSSLTSEDSAVYFCARRGLYYAMDYWGQGISVTVSS VL: DVLMTQTPLSLPVSLGDQASISCRSSQSLVHSNGIPYLHWYLQKPGQSPKLLIYRVSNRFSGVPDRFSGSGSGTDFTLKISRVEAEDLGVYFCSQGTHVPPTFGGGTKLEIK | specific binding | 
0.000169 | 1.64e+06 | c10G5: chimeric (mouse variable/human constant) IgG1 antibody with the 10G5 VH and VL (antibody, V domains shown) VH: QVQLQQSGAELVRPGASVKLSCKASGYSFTDFYINWVRQRPGQGLEWIARIFPGGDNTYYNEKFKGKATLTAEESSSTAYIQLSSLTSEDSAVYFCARRGLYYAMDYWGQGISVTVSS VL: DVLMTQTPLSLPVSLGDQASISCRSSQSLVHSNGIPYLHWYLQKPGQSPKLLIYRVSNRFSGVPDRFSGSGSGTDFTLKISRVEAEDLGVYFCSQGTHVPPTFGGGTKLEIK |  | Dose-dependent binding

Source: US11732048B2, “Anti-axl antagonistic antibodies” (BERGEN TEKNOLOGIOVERFØRING AS, priority 2016, dated 2023)
